Molecular target: 6His-PfJ (4.1R binding region of Plasmodium falciparum erythrocyte binding antigen-181, aa 945-1097) (P. falciparum) (UniProt Q8I2B4)
Test: pull-down; ~700 ng 6His-PfJ coupled to His-Select magnetic beads, GST-4.1R domain (150 ng to 2 μg; heat denatured protein as control) added for 1 hr at room temperature, rinsed with TBS, eluted with 1% SDS, SDS-PAGE with scanning densitometry; Kd a rough estimate from linear transformations of three curves

Substance: GST-10 kDa domain of human erythrocyte protein 4.1 (4.1R) (domain or fragment)
- Kd: 745 nM

Source: article PMC1635724
